From a protein production outcome set (Wang et al. 2014)

Assay: label from the status in PepcDB records

| Sequence | protein production |
| --- | --- |
| MSLIADHGFAFLVLACLFGFFMAWGVGANDVANAMGTSVGSRALTIRQAILVAMVFEFCGAYFAGGEVTETIRSGIVDPQYMTPDLLVFGMLSALLAAGVWLLLATIKGWPVSTTHSIVGAIIGFASVGVSVHAVHWGAIGPIVASWVVTPVLSGLLAFALFRSVQWLVLHAEDPFRSARRYVPLYMFLAGFMVALMTVGKGLKHVGLELSGLQTLGLALLAGGLVMGLGIVLLLRIRPTGGADPRGGFASVERVFAVLMIFTACSMAFAHGANDVANAIGPVAAVVAVVQAGGDLDLVSRSPVPSWVLLLGAVGIVIGLATYGYRVIATIGREITELTPSRGFAAELATASTVVGASAIGLPVSTTHTLVGAVLGIGMARGIGALNLRVIGSIFLSWVVTLPAGAVLAILFFLVLRALFGA | failed |
| MFQIIGIVLLFAMVFGSYIMAGGKMDVIIHAAPHELMAIGGAGVAAFLIGNSVTVIKATLGGFGTIFKGPKWKAQDYRDLLSLLFLLTKTMKSKGVIALEAHIEKPHESTIFSRYPKIAHDHFAVDFICDTLRMMTMNLEDPHQVEDAMEKQLEKHHHEAHGAAHALTQLSDGLPALGIVAAVLGVIKTMGSITEPPAVLGTMIGGALVGTFMGVFMAYGLVGPMATRLGGVLDEDHNFYKIIQAVLVAHLHGNAAQISVEIGRGNVPSAYQPSFAELEEALSQMPNE | failed |
| TKALNFTYTLDSGVKGTLYQFPAEYTLLFINNPGCHACAEMIEGLKASPVINGFTAAKKLKVLSIYPDEELDEWKKHRNDFAKEWTNGYDKELVIKNKNLYDLRAIPTLYLLDKNKTVLLKDATLQKVEQYLAERG | not failed |
| MDSASQDINLNSPNKGVLSDFMTDVPVDPGVVHRTPVVEGLTEGEEEELRAELAKVEEEIVTLRQVLAAKERHCGELKRRLGLSTLGELKQNLSRSWHDVQVSTAYVKTSEKLGEWNEKVTQSDLYKKTQETLSQAGQKTSAALSTMGSAISRKLGDMSSYSIRHSISMPVMRNSATFKSFEDRVGTIKSKVVGGRENGSDNLPPSPGSGDQTLPDHAPF | failed |
| MLKKVIGILVIIAIISVGFFQKEAWLDAIKAGGMFSVLFSMLLIAADVFFPIVPFALIAALNGAVFGTANGIWITLTGSMLGTILLFFLARYSFRDWARKKVQAYPAIQSYEASFNKNAFTAVLLGRLIPVIPSLVMNVICGLSQVRWHVFFFASLIGKIPNIVVVTIAGANFTSNKLLSISIYGTYILIIMLVIYKKFPHLLKVPKK | failed |
| MDGSPARPVPLVPDAAPAAPGRGRLAALTLLTLGFFAANSLLARAALRPGLADPATFTAIRLASGAAALGGLALASRRARPRGGSAGSALALFAYAAAFSLAYRRIDAGPGAFLLFFAVQASMIGWSVLRGARPTRRQWAGLAVALAGLGWLTLPGAHAPDARGAALMLAAGVAWGAYTLRGRGVRDPAGATAANFALAVPLALCLVIASAGTLHLTARGAALAAASGAVASGVGYVLWYTVVPALGAARAAAVQLAVPAMVPLAAAGLLGEAITPRLLAAGTAILAGVALAIAPAARGGAFTRALSSRAGSAVERPPR | failed |
| SPNPPKLTKQMNAIIDTVINYKDSSGRQLSEVFIQLPSRKELPEYYELIRKPVDFKKIKERIRNHKYRSLGDLEKDVMLLCHNAQTFNLEGSQIYEDSIVLQSVFKSARQ | not failed |
| MAESVRLPTPYNRKTEIRPMFTEIILFLLDTVFTLFGMALLLRLWMQLSRLPSRNPVSQGVFQVTDWIVRPLRRIIPGLGGIDWATVFAAYLTAVAFLLCRALVLGADPLGFLPVILALGVLSMLKWGISMVMWVTLLMAVLSWVNPNSPLAAPIWHLTAPLLRPIQRVVPRLGGFDISPLILFVIAQILLMVIANVSRGVA | failed |
| SLETVQLRNPPRRQLKKLDEDSLTKQPEEVFDVLEKLGEGSYGSVYKAIHKETGQIVAIKQVPVESDLQEIIKEISIMQQCDSPHVVKYYGSYFKNTDLWIVMEYCGAGSVSDIIRLRNKTLTEDEIATILQSTLKGLEYLHFMRKIHRDIKAGNILLNTEGHAKLADFGVAGQLTDTMAKRNTVIGTPFWMAPEVIQEIGYNCVADIWSLGITAIEMAEGKPPYADIHPMRAIFMIPTNPPPTFRKPELWSDNFTDFVKQCLVKSPEQRATATQLLQHPFVRSAKGVSILRDLINEAMDVKLKRQESQQREEG | not failed |
| AQAEVRIDGPIEYGVFESRYQDFQPGERVLTRSEQNIQQTTEVPAKLGTKFGMRYQLSGKQEGDTPLTLLYLTPGVVTPDGQRHDKFEVVQKLVPGAPTDVMAYEFTEPHEVVKGEWRLMVFQGDRLLAEKSFDVR | not failed |
| ERKRREKRLEETSSRLEALFENSPDMIDVLDADGTICEVNQRFCAELGYDESEVLGRSIWEFDLMFDAEDVQTQLSGFSVDERRKFEGLYERRDGSTMSVEVHLLRFNLEGEDRFLAISRDIT | not failed |
